The text below walks through data of US20240067696A1 (ZEALAND PHARMA A S, published 2024).

Non-standard residues stand in square brackets, D forms with d. Dab = NCC[C@H](N)C(=O)O; Aib = CC(C)(N)C(=O)O

The target of the assay is human glucagon receptor (human, UniProt P47871 26-477). In words: cell-based or functional assay.
human glucagon receptor, sequence (P47871 26-477): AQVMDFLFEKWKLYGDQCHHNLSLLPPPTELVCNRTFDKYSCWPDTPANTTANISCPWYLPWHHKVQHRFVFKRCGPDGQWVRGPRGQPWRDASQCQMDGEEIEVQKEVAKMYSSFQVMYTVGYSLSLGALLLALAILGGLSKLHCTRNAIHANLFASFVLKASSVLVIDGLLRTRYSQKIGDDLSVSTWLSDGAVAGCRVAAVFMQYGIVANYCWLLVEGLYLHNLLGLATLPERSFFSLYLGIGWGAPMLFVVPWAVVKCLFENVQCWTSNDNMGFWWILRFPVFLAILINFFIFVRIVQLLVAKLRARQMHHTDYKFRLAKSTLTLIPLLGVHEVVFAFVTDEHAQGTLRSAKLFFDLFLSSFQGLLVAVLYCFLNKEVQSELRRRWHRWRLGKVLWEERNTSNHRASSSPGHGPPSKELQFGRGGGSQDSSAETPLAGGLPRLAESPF

B1: Compound 15 (peptide)
peptide: H-HSQGTFTSDYSKYLD[Aib]ARAESFVKWLEST-OH
SMILES: CC(C)C[C@H](NC(=O)[C@H](Cc1c[nH]c2ccccc12)NC(=O)[C@H](CCCCN)NC(=O)[C@@H](NC(=O)[C@H](Cc1ccccc1)NC(=O)[C@H](CO)NC(=O)[C@H](CCC(=O)O)NC(=O)[C@H](C)NC(=O)[C@H](CCCNC(=N)N)NC(=O)[C@H](C)NC(=O)C(C)(C)NC(=O)[C@H](CC(=O)O)NC(=O)[C@H](CC(C)C)NC(=O)[C@H](Cc1ccc(O)cc1)NC(=O)[C@H](CCCCN)NC(=O)[C@H](CO)NC(=O)[C@H](Cc1ccc(O)cc1)NC(=O)[C@H](CC(=O)O)NC(=O)[C@H](CO)NC(=O)[C@@H](NC(=O)[C@H](Cc1ccccc1)NC(=O)[C@@H](NC(=O)CNC(=O)[C@H](CCC(N)=O)NC(=O)[C@H](CO)NC(=O)[C@@H](N)Cc1c[nH]cn1)[C@@H](C)O)[C@@H](C)O)C(C)C)C(=O)N[C@@H](CCC(=O)O)C(=O)N[C@@H](CO)C(=O)N[C@H](C(=O)O)[C@@H](C)O
Turning to B1, the “GCG-R EC50 in vitro [nM] (cAMP, AlphaScreen, HEK293 cells expressing human Glucagon-R)” value (“GCG-R EC50 in vitro [nM]” below) is 0.03 nM.

B2: Compound 17 (peptide)
peptide: H-HSQGTFTSDYSKYLDLARAEDFVKWLEST-OH
Turning to B2, the “GCG-R EC50 in vitro [nM]” value worked out at 0.029 nM.

B3: Compound 28 (peptide)
peptide: H-HSQGTFTSDYSKYLDEARAKSFVEWLEST-OH
With B3, the “GCG-R EC50 in vitro [nM]” value worked out at 0.035 nM.

B4: Compound 16 (peptide)
peptide: H-HSQGTFTSDYSKYLESARAESFVKWLEST-OH
As to B4, the “GCG-R EC50 in vitro [nM]” value was determined as 0.39 nM.

B5: Compound 12 (peptide)
peptide: H-HSQGTFTSDYSKYLD[Aib]ARAEDFVKWLEST-OH
SMILES: CC(C)C[C@H](NC(=O)[C@H](Cc1c[nH]c2ccccc12)NC(=O)[C@H](CCCCN)NC(=O)[C@@H](NC(=O)[C@H](Cc1ccccc1)NC(=O)[C@H](CC(=O)O)NC(=O)[C@H](CCC(=O)O)NC(=O)[C@H](C)NC(=O)[C@H](CCCNC(=N)N)NC(=O)[C@H](C)NC(=O)C(C)(C)NC(=O)[C@H](CC(=O)O)NC(=O)[C@H](CC(C)C)NC(=O)[C@H](Cc1ccc(O)cc1)NC(=O)[C@H](CCCCN)NC(=O)[C@H](CO)NC(=O)[C@H](Cc1ccc(O)cc1)NC(=O)[C@H](CC(=O)O)NC(=O)[C@H](CO)NC(=O)[C@@H](NC(=O)[C@H](Cc1ccccc1)NC(=O)[C@@H](NC(=O)CNC(=O)[C@H](CCC(N)=O)NC(=O)[C@H](CO)NC(=O)[C@@H](N)Cc1c[nH]cn1)[C@@H](C)O)[C@@H](C)O)C(C)C)C(=O)N[C@@H](CCC(=O)O)C(=O)N[C@@H](CO)C(=O)N[C@H](C(=O)O)[C@@H](C)O
As for B5, the “GCG-R EC50 in vitro [nM]” value turned out to be 0.03 nM.

B6: Compound 19 (peptide)
peptide: H-HSQGTFTSDYSKYLDVARAESFVKWLEST-OH
In the case of B6, the “GCG-R EC50 in vitro [nM]” value came to 0.054 nM.

B7: Compound 25 (peptide)
peptide: H-HSQGTFTSDYSKYLD[Aib]RRAESFVKWLEST-OH
SMILES: CC(C)C[C@H](NC(=O)[C@H](Cc1c[nH]c2ccccc12)NC(=O)[C@H](CCCCN)NC(=O)[C@@H](NC(=O)[C@H](Cc1ccccc1)NC(=O)[C@H](CO)NC(=O)[C@H](CCC(=O)O)NC(=O)[C@H](C)NC(=O)[C@H](CCCNC(=N)N)NC(=O)[C@H](CCCNC(=N)N)NC(=O)C(C)(C)NC(=O)[C@H](CC(=O)O)NC(=O)[C@H](CC(C)C)NC(=O)[C@H](Cc1ccc(O)cc1)NC(=O)[C@H](CCCCN)NC(=O)[C@H](CO)NC(=O)[C@H](Cc1ccc(O)cc1)NC(=O)[C@H](CC(=O)O)NC(=O)[C@H](CO)NC(=O)[C@@H](NC(=O)[C@H](Cc1ccccc1)NC(=O)[C@@H](NC(=O)CNC(=O)[C@H](CCC(N)=O)NC(=O)[C@H](CO)NC(=O)[C@@H](N)Cc1c[nH]cn1)[C@@H](C)O)[C@@H](C)O)C(C)C)C(=O)N[C@@H](CCC(=O)O)C(=O)N[C@@H](CO)C(=O)N[C@H](C(=O)O)[C@@H](C)O
In the case of B7, the “GCG-R EC50 in vitro [nM]” value is 0.0066 nM.

B8: Compound 13 (peptide)
peptide: H-HSQGTFTSDYSKYLDSARAEDFVKWLES-OH
As for B8, the “GCG-R EC50 in vitro [nM]” value was 0.07 nM.

B9: Compound 14 (peptide)
peptide: H-HSQGTFTSDYSKYLDEARAEDFVKWLEST-OH
Turning to B9, the “GCG-R EC50 in vitro [nM]” value came out at 0.15 nM.

B10: Compound 24 (peptide)
peptide: H-HS[Dab](Ac)GTFTSDYSKYLD[Aib]ARAESFVKWLEST-NH2
SMILES: CC(=O)NCC[C@H](NC(=O)[C@H](CO)NC(=O)[C@@H](N)Cc1c[nH]cn1)C(=O)NCC(=O)N[C@H](C(=O)N[C@@H](Cc1ccccc1)C(=O)N[C@H](C(=O)N[C@@H](CO)C(=O)N[C@@H](CC(=O)O)C(=O)N[C@@H](Cc1ccc(O)cc1)C(=O)N[C@@H](CO)C(=O)N[C@@H](CCCCN)C(=O)N[C@@H](Cc1ccc(O)cc1)C(=O)N[C@@H](CC(C)C)C(=O)N[C@@H](CC(=O)O)C(=O)NC(C)(C)C(=O)N[C@@H](C)C(=O)N[C@@H](CCCNC(=N)N)C(=O)N[C@@H](C)C(=O)N[C@@H](CCC(=O)O)C(=O)N[C@@H](CO)C(=O)N[C@@H](Cc1ccccc1)C(=O)N[C@H](C(=O)N[C@@H](CCCCN)C(=O)N[C@@H](Cc1c[nH]c2ccccc12)C(=O)N[C@@H](CC(C)C)C(=O)N[C@@H](CCC(=O)O)C(=O)N[C@@H](CO)C(=O)N[C@H](C(N)=O)[C@@H](C)O)C(C)C)[C@@H](C)O)[C@@H](C)O
On to B10, for which the “GCG-R EC50 in vitro [nM]” value came to 0.0078 nM.

B11: Compound 23 (peptide)
peptide: H-HSQGTFTSDVSKYLD[Aib]ARAESFVKWLEST-OH
SMILES: CC(C)C[C@H](NC(=O)[C@H](Cc1c[nH]c2ccccc12)NC(=O)[C@H](CCCCN)NC(=O)[C@@H](NC(=O)[C@H](Cc1ccccc1)NC(=O)[C@H](CO)NC(=O)[C@H](CCC(=O)O)NC(=O)[C@H](C)NC(=O)[C@H](CCCNC(=N)N)NC(=O)[C@H](C)NC(=O)C(C)(C)NC(=O)[C@H](CC(=O)O)NC(=O)[C@H](CC(C)C)NC(=O)[C@H](Cc1ccc(O)cc1)NC(=O)[C@H](CCCCN)NC(=O)[C@H](CO)NC(=O)[C@@H](NC(=O)[C@H](CC(=O)O)NC(=O)[C@H](CO)NC(=O)[C@@H](NC(=O)[C@H](Cc1ccccc1)NC(=O)[C@@H](NC(=O)CNC(=O)[C@H](CCC(N)=O)NC(=O)[C@H](CO)NC(=O)[C@@H](N)Cc1c[nH]cn1)[C@@H](C)O)[C@@H](C)O)C(C)C)C(C)C)C(=O)N[C@@H](CCC(=O)O)C(=O)N[C@@H](CO)C(=O)N[C@H](C(=O)O)[C@@H](C)O
Consider B11, for which the “GCG-R EC50 in vitro [nM]” value was determined as 0.16 nM.

B12: Compound 22 (peptide)
peptide: H-HSQ[dA]TFTSDYSKYLD[Aib]ARAESFVKWLEST-OH
SMILES: CC(C)C[C@H](NC(=O)[C@H](Cc1c[nH]c2ccccc12)NC(=O)[C@H](CCCCN)NC(=O)[C@@H](NC(=O)[C@H](Cc1ccccc1)NC(=O)[C@H](CO)NC(=O)[C@H](CCC(=O)O)NC(=O)[C@H](C)NC(=O)[C@H](CCCNC(=N)N)NC(=O)[C@H](C)NC(=O)C(C)(C)NC(=O)[C@H](CC(=O)O)NC(=O)[C@H](CC(C)C)NC(=O)[C@H](Cc1ccc(O)cc1)NC(=O)[C@H](CCCCN)NC(=O)[C@H](CO)NC(=O)[C@H](Cc1ccc(O)cc1)NC(=O)[C@H](CC(=O)O)NC(=O)[C@H](CO)NC(=O)[C@@H](NC(=O)[C@H](Cc1ccccc1)NC(=O)[C@@H](NC(=O)[C@@H](C)NC(=O)[C@H](CCC(N)=O)NC(=O)[C@H](CO)NC(=O)[C@@H](N)Cc1c[nH]cn1)[C@@H](C)O)[C@@H](C)O)C(C)C)C(=O)N[C@@H](CCC(=O)O)C(=O)N[C@@H](CO)C(=O)N[C@H](C(=O)O)[C@@H](C)O
B12: the “GCG-R EC50 in vitro [nM]” value worked out at 0.024 nM.

B13: Compound 10 (peptide)
peptide: H-HSQGTFTSDYSKYLDSARAEDFVSWLEST-OH
As to B13, the “GCG-R EC50 in vitro [nM]” value came to 0.32 nM.

B14: Compound 20 (peptide)
peptide: H-HAQGTFTSDYSKYLD[Aib]ARAESFVKWLEST-OH
SMILES: CC(C)C[C@H](NC(=O)[C@H](Cc1c[nH]c2ccccc12)NC(=O)[C@H](CCCCN)NC(=O)[C@@H](NC(=O)[C@H](Cc1ccccc1)NC(=O)[C@H](CO)NC(=O)[C@H](CCC(=O)O)NC(=O)[C@H](C)NC(=O)[C@H](CCCNC(=N)N)NC(=O)[C@H](C)NC(=O)C(C)(C)NC(=O)[C@H](CC(=O)O)NC(=O)[C@H](CC(C)C)NC(=O)[C@H](Cc1ccc(O)cc1)NC(=O)[C@H](CCCCN)NC(=O)[C@H](CO)NC(=O)[C@H](Cc1ccc(O)cc1)NC(=O)[C@H](CC(=O)O)NC(=O)[C@H](CO)NC(=O)[C@@H](NC(=O)[C@H](Cc1ccccc1)NC(=O)[C@@H](NC(=O)CNC(=O)[C@H](CCC(N)=O)NC(=O)[C@H](C)NC(=O)[C@@H](N)Cc1c[nH]cn1)[C@@H](C)O)[C@@H](C)O)C(C)C)C(=O)N[C@@H](CCC(=O)O)C(=O)N[C@@H](CO)C(=O)N[C@H](C(=O)O)[C@@H](C)O
Turning to B14, the “GCG-R EC50 in vitro [nM]” value is 0.24 nM.

B15: Compound 9 (peptide)
peptide: H-HSQGTFTSDYSKYLDSARAEEFVKWLEST-OH
For B15, the “GCG-R EC50 in vitro [nM]” value was found to be 0.03 nM.

B16: Compound 27 (peptide)
peptide: H-HSQGTFTSDYSKYLDEARAKSFVEWLEKT-OH
B16: the “GCG-R EC50 in vitro [nM]” value is 0.063 nM.

B17: Compound 11 (peptide)
peptide: H-HSQGTFTSDLSKYLDSARAEDFVKWLEST-OH
Regarding B17, the “GCG-R EC50 in vitro [nM]” value is 0.11 nM.

B18: Compound 1 (peptide)
peptide: H-HSQGTFTSDYSKYLDSARAESFVKWLEST-OH
Regarding B18, the “GCG-R EC50 in vitro [nM]” value was determined as 0.064 nM.

B19: Compound 18 (peptide)
peptide: H-HSQGTFTSDYSKYLDKRRAEDFVSWLEST-OH
B19: the “GCG-R EC50 in vitro [nM]” value stood at 0.026 nM.
